PMC9507130

Target: Vin1^1-116-mScI (UniProt P36158)
Assay: subcellular recruitment assay (fluorescence microscopy, puncta quantification)
Conditions: vrl1 vin1Δ cells; over-expressed Vrl1(1-703)YPE chimera; pVIN1(1-116)-mScI; n=3, cells/strain/replicate ≥863; parent: est. 0.82; read off a plot

Chain of UniProt P36158 (P36158 1-116): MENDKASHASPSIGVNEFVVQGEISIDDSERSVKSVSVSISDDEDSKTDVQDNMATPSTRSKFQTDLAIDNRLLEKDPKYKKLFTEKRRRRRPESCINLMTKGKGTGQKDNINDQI

other: Average Bright Vin1(1-116)-mScI Puncta Per Cell (puncta per cell) | Substance
0.14 | Vrl1(1-703)^YPE (from UniProt P38815) D511K
0.075 | Vrl1(1-703)^YPE (from UniProt P38815) E504A; E510A; D511A; N546A; E551A
0.04 | Vrl1(1-703)^YPE (from UniProt P38815) E510R
